Source: patent US20260008857A1 (FLAGSHIP PIONEERING INNOVATIONS VI, published 2026)
Positions count from the first letter of the chain named.

T1: human IL-4Rα (interleukin 4 receptor subunit alpha) (human, UniProt P24394 26-232, limits assumed)
T1 sequence (looked up): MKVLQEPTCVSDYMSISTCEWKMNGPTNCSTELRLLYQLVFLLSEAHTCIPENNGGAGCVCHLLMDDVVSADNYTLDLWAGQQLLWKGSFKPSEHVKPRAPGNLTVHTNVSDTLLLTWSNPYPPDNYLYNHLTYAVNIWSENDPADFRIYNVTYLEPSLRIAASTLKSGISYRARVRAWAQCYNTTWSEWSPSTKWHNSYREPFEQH

T2: IL-4Rα on human primary cells (primary B cells, whole blood B and T cells, PBMCs) (human, UniProt P24394 26-825)
T2 sequence (looked up): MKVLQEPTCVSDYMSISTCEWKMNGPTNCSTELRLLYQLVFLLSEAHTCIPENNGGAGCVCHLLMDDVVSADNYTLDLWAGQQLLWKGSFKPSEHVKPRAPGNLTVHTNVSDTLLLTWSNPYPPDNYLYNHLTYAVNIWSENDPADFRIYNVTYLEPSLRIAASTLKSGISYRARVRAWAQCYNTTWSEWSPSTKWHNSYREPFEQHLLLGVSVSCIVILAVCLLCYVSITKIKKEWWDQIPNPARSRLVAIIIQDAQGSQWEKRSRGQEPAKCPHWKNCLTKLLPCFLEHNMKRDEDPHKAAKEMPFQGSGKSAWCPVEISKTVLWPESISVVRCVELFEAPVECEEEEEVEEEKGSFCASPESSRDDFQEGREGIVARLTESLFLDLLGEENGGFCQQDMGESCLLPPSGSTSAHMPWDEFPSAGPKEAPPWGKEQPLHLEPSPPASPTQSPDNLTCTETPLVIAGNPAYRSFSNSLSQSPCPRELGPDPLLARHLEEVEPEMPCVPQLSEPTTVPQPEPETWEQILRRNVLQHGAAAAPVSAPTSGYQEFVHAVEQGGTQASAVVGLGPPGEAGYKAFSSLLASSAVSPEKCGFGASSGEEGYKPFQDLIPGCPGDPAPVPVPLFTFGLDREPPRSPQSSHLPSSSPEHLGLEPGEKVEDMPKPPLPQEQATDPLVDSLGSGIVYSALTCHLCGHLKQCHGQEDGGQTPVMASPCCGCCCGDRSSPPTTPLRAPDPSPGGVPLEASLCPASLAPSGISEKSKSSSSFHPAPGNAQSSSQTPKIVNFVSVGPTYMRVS

B1: AB-13b (antibody, human IgG4 S228P, kappa)
heavy: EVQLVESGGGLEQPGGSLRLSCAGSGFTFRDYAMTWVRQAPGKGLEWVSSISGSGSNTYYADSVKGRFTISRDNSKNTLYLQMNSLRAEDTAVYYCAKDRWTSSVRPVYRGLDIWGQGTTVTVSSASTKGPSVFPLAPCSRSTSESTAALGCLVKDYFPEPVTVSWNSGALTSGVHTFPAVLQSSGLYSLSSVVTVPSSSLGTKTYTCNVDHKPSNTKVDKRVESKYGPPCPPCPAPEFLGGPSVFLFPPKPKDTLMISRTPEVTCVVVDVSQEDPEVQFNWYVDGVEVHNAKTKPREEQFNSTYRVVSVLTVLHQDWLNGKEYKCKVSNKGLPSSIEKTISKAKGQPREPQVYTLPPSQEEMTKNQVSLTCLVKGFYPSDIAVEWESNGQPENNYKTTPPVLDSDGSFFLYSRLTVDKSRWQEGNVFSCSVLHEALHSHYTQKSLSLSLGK
light: DIVMTQSPLSLPVTPGEPASISCRSSQSLLYSHGYNYLDWYLQKSGQSPQLLIYLASNRASGVPDRFSGSGSGTDFTLKISRVEAEDVGFYYCMQSLYTPYTFGQGTKLEIKRTVAAPSVFIFPPSDEQLKSGTASVVCLLNNFYPREAKVQWKVDNALQSGNSQESVTEQDSKDSTYSLSSTLTLSKADYEKHKVYACEVTHQGLSSPVTKSFNRGEC
notes: hIgG4 LS variant, kappa
B2: AB-13a (antibody, human IgG4 S228P, kappa)
heavy: EVQLVESGGGLEQPGGSLRLSCAGSGFTFRDYAMTWVRQAPGKGLEWVSSISGSGSNTYYADSVKGRFTISRDNSKNTLYLQMNSLRAEDTAVYYCAKDRWTSSVRPVYRGLDIWGQGTTVTVSSASTKGPSVFPLAPCSRSTSESTAALGCLVKDYFPEPVTVSWNSGALTSGVHTFPAVLQSSGLYSLSSVVTVPSSSLGTKTYTCNVDHKPSNTKVDKRVESKYGPPCPPCPAPEFLGGPSVFLFPPKPKDTLYITREPEVTCVVVDVSQEDPEVQFNWYVDGVEVHNAKTKPREEQFNSTYRVVSVLTVLHQDWLNGKEYKCKVSNKGLPSSIEKTISKAKGQPREPQVYTLPPSQEEMTKNQVSLTCLVKGFYPSDIAVEWESNGQPENNYKTTPPVLDSDGSFFLYSRLTVDKSRWQEGNVFSCSVMHEALHNHYTQKSLSLSLGK
light: B1 light
notes: hIgG4 YTE variant, kappa
B3: AB-13c (antibody, human IgG4 S228P, kappa)
heavy: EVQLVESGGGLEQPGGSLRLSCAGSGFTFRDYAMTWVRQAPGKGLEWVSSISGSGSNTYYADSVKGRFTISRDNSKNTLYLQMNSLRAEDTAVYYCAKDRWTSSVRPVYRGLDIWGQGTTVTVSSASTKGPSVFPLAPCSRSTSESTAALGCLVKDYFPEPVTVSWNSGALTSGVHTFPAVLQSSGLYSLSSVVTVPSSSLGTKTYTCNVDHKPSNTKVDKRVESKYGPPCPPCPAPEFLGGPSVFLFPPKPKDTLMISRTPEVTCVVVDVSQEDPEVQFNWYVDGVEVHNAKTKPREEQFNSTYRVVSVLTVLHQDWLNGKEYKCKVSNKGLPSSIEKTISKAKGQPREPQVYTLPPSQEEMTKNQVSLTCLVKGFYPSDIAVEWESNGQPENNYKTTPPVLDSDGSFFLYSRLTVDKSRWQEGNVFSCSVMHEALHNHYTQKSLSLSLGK
light: B1 light
notes: hIgG4 wild type, kappa
B4: AB-13d (antibody, human IgG1, kappa)
heavy: not shown
light: B1 light
notes: hIgG1, kappa
B5: AB-9c (antibody, human IgG4 S228P, kappa)
heavy: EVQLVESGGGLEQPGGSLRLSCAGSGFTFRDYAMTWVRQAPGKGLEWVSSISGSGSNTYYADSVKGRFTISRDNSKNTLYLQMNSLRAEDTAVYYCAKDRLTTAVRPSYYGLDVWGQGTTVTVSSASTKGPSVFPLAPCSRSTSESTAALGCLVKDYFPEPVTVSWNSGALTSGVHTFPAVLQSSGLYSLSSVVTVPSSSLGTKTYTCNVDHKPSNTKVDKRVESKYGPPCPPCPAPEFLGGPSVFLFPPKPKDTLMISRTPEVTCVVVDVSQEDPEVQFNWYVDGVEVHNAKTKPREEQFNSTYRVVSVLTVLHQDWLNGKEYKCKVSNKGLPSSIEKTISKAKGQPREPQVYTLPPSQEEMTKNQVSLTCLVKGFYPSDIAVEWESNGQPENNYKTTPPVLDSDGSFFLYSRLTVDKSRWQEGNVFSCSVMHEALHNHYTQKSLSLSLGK
light: B1 light with H33L, Y98Q
notes: hIgG4 WT, kappa
B6: AB-3c (antibody, human IgG4 S228P, kappa)
heavy chain: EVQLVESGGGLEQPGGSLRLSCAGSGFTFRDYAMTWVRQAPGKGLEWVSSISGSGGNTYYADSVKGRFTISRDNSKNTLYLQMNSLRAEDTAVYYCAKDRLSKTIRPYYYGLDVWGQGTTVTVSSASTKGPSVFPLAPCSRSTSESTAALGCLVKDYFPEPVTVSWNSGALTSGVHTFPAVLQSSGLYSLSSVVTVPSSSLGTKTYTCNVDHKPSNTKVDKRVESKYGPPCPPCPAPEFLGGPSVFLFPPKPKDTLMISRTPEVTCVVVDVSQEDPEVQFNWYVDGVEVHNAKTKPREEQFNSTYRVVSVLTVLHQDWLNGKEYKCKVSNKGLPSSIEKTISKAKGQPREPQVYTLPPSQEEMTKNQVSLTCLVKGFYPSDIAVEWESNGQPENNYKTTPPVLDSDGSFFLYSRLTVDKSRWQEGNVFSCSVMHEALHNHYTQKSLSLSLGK
light chain: B1 light with H33T, A56G, Y98S
notes: hIgG4 WT ('c')
B7: AB-9d (antibody, human IgG1, kappa)
heavy chain: not shown
light chain: B1 light with H33L, Y98Q
notes: hIgG1 ('d')
B8: AB-1d (antibody, human IgG1, kappa, V domains shown)
VH: EVQLVESGGGLEQPGGSLRLSCAGSGFTFSDYAMTWVRQAPGKGLEWVSSISGSGGNTYYADSVKGRFTISRDNSKNTLYLQMNSLRAEDTAVYYCAKDALTIAIRPYYYGLDVWGQGTTVTVSS
VL: DIVMTQSPLSLPVTPGEPASISCRSSQSLDYSYGYNYLDWYLQKSGQSPQLLIYLASNRASGVPDRFSGSGSGTDFTLKISRVEAEDVGFYYCMQSLSTPYTFGQGTKLEIKR
notes: hIgG1 ('d')
B9: AB-10c (antibody, human IgG4 S228P, kappa, V domains shown)
VH: EVQLVESGGGLEQPGGSLRLSCAGSGFTFRDYAMTWVRQAPGKGLEWVSSISGSGDKTYYADSVKGRFTISRDNSKNTLYLQMNSLRAEDTAVYYCARDRLSSSARPVYVGLDVWGQGTTVTVSS
VL: B8 VL with D30L, Y33V, Y35K, S96D, S98F, T99H
notes: hIgG4 WT, kappa
B10: AB-7c (antibody, human IgG4 S228P, kappa, V domains shown)
VH: B9 VH with D56S, K57T, R98K, S102T, S103A, A105V, V108I
VL: B8 VL with D30L, Y33E, S96T, S98K
notes: hIgG4 WT, kappa
B11: AB-4c (antibody, human IgG4 S228P, kappa)
heavy: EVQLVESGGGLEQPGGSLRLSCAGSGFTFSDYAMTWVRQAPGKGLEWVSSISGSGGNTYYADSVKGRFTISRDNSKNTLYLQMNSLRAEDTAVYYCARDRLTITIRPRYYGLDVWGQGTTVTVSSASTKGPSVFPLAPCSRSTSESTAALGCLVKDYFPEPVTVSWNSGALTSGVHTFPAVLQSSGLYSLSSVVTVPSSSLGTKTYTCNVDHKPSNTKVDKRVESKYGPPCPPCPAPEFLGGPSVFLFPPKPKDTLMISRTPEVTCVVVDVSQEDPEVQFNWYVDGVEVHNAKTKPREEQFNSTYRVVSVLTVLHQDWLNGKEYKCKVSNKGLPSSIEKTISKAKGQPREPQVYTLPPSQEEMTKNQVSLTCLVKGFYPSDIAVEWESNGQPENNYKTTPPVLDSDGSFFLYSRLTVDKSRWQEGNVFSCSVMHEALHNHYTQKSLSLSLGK
light: B1 light with H33T, S96A, Y98S
notes: hIgG4 WT, kappa
B12: AB-11c (antibody, human IgG4 S228P, kappa, V domains shown)
VH: B9 VH with D56T, K57N, R98K, S103V, A105T, V108K, V110Y
VL: B8 VL with S98H
notes: hIgG4 WT, kappa
B13: AB-12c (antibody, human IgG4 S228P, kappa)
heavy: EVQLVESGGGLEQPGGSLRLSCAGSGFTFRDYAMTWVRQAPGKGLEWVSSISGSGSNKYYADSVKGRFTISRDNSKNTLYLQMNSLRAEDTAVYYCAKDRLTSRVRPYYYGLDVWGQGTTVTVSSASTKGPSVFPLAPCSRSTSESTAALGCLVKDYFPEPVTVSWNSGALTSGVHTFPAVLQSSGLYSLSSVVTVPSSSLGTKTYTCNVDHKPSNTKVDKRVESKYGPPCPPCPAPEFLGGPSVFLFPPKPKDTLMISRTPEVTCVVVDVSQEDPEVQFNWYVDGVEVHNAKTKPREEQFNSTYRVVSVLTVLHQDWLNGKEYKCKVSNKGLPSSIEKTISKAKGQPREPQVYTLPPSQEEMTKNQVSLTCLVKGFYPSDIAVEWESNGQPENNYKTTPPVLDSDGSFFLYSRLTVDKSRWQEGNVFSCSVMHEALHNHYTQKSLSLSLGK
light: B1 light with H33Q, Y98F
notes: hIgG4 WT, kappa
B14: AB-6c (antibody, human IgG4 S228P, kappa)
heavy: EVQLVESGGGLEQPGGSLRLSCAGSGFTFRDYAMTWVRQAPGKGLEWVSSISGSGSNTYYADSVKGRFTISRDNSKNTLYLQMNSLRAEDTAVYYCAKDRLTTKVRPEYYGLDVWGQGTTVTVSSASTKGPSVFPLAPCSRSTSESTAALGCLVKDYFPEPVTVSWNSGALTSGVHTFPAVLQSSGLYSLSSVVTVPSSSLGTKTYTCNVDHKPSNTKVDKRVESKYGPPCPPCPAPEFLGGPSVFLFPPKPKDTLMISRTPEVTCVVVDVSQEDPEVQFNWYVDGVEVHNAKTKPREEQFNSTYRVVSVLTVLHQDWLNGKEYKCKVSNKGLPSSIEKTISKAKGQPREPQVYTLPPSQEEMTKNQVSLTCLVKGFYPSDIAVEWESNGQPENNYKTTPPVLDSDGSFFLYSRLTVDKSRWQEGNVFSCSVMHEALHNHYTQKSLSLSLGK
light: B1 light with H33I, Y98Q
notes: hIgG4 WT, kappa
B15: AB-2c (antibody, human IgG4 S228P, kappa, V domains shown)
VH: B8 VH with S30R, G56S, K98R, A100R, I103A, I105V
VL: B8 VL with Y33S, S98Q
notes: hIgG4 WT, kappa
B16: AB-5c (antibody, human IgG4 S228P, kappa)
heavy: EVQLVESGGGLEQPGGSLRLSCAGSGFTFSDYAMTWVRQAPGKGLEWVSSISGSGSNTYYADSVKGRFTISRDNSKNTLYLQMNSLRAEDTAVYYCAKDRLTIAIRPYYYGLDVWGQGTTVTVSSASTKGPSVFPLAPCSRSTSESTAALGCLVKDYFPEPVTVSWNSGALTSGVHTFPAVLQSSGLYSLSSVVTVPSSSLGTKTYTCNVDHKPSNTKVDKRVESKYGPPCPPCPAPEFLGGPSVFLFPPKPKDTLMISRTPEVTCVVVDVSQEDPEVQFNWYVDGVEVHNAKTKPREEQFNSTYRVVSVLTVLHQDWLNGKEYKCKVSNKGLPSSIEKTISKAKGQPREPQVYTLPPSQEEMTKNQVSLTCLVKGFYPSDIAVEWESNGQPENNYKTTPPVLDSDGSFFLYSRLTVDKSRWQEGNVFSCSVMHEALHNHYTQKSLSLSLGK
light: B1 light with L30D, H33I, S96A, Y98Q
notes: hIgG4 WT, kappa
B17: AB-8c (antibody, human IgG4 S228P, kappa, V domains shown)
VH: B8 VH with S30R, G56S, A100R, I103A, A104S, I105V, Y108N
VL: B8 VL with D30L, Y33E, S98T
notes: hIgG4 WT, kappa
B18: Reference Antibody (antibody, human IgG4 S228P, kappa, V domains shown)
VH: B8 VH with S30R, A100R, T102S, A104T, Y108R
VL: B8 VL with D30L, Y33I, A56G, S96A, S98Q

Molecular target: T1, human IL-4Rα (interleukin 4 receptor …)
Assay: SPR, Biacore 8K+ multi-cycle capture kinetics; antibody captured on goat anti-human polyclonal surface, human IL-4Rα as analyte, 25 C, 1:1 model

| Binder | Kd [nM] | koff [s⁻¹] | kon [M⁻¹ s⁻¹] |
| --- | --- | --- | --- |
| B1 | 0.0249 | 2.19e-05 | 881000 |
| B2 | 0.0333 | 2.59e-05 | 778000 |
| B3 | 0.0266 | 2.22e-05 | 836000 |
| B4 | 0.0326 | 2.57e-05 | 789000 |

Molecular target: T1, human IL-4Rα (interleukin 4 receptor …)
Assay: indirect ELISA on plate-coated recombinant human IL-4Rα (2 ug/mL), anti-human IgG Fc-HRP, A450

| Binder | EC50 (read off the curve) [nM] |
| --- | --- |
| B5 | ~0.02 |
| B6 | ~0.1 |
| B3 | ~0.05 |

Molecular target: T1, human IL-4Rα (interleukin 4 receptor …)
Assay: as above
Remark: another data set of the same source

| Binder | EC50 (read off the curve) [nM] | binding result |
| --- | --- | --- |
| B7 | ~0.02 | – |
| B8 | – | binds |

Molecular target: T1, human IL-4Rα (interleukin 4 receptor …)
Assay: SPR, Carterra LSA non-regenerative capture kinetics; antibody captured on goat anti-human polyclonal lawn, human IL-4Rα as analyte, 25 C, 1:1 model; average ± SD of technical replicates

| Binder | Kd [nM] |
| --- | --- |
| B9 | 546 |
| B10 | 0.3 |
| B11 | 0.56 |
| B12 | 0.83 |
| B5 | 0.63 |
| B13 | ≤ 0.09 |
| B14 | ≤ 0.1 |
| B15 | 50.7 |
| B16 | 2.37 |
| B17 | 0.85 |
| B3 | ≤ 0.12 |

Molecular target: T2, IL-4Rα on human primary cells (primary …)
Assay: cell-based or functional assay

| Binder | Inhibition of CD23 Expression by Primary B cells (IC50), Donor 13 [nM] | Inhibition of CD23 Expression by Primary B cells (IC50), Donor 52 [nM] | Inhibition of CD23 Expression by Primary B cells (IC50), Donor 53 [nM] | Inhibition of CD23 Expression by Primary B cells (IC50), Donor 56 [nM] |
| --- | --- | --- | --- | --- |
| B18 | 22 | 11.9 | 18 | 29.8 |
| B1 | 30.1 | 34.4 | 35.9 | 54.2 |
| B2 | 27.5 | 17.8 | 40.6 | 54.4 |
| B3 | 24.9 | 23 | 26.2 | 25.8 |
